Measured values taken from patent US9315544B2, “Method of treating eosinophilia by administering an immunomodulating peptide” (National Tsing Hua University, priority 2012, dated 2016).

B1: ECP: eosinophil cationic protein, recombinant; marker protein of asthma used as stimulus (protein, UniProt P12724 28-160, looked up)
Eosinophil cationic protein: RPPQFTRAQWFAIQHISLNPPRCTIAMRAINNYRWRCKNQNTFLRTTFANVVNVCGNQSIRCPHNRTLNNCHRSRFRVPLLHCDLINPGAQNISNCTYADRPGRRFYVVACDNRDPRDSPRYPVVPVHLDTTI
B2: IL-4: a dominant cytokine regulating CCL11, used as stimulus (protein, UniProt P05112 25-153, looked up)
Interleukin-4: HKCDITLQEIIKTLNSLTEQKTLCTELTVTDIFAASKNTTEKETFCRAATVLRQFYSHHEKDTRCLGATAQQFHRHKQLIRFLKRLDRNLWGLAGLNSCPVKEANQSTLENFLERLKTIMREKYSKCSS

What was measured:
Format in all cases: cell-based
CCL11 = test: Cytokine mRNA expression analysis by quantitative real-time PCR (CCL11); conditions: 5 μM ECP, Beas-2B cells, relative to mock-treated
Experimental: (§1) FIG. 1A-1B illustrates immunomodulatory effect of CMP on transcription of cytokine. Beas-2B cells were starved with serum free medium for 24 h, followed by stimulation with refold 5 μM ECP or 5 μM CMP or co-treatment with 5 μM ECP and 5 μM CMP at 37° C. for (A) 6 h and (B) 12 h, respectively. The mRNA quantities of CCL11, CCL24 and CCL26 were determined by real-time PCR. Beas-2B cells without protein treatment were used as control. […] The data represented at least three independent experiments and the error bar was shown as standard deviation (SD).
For inflammatory cytokine expression analysis, Beas-2B cells were stimulated with three different conditions: 1) 5 μM ECP, 2) 5 μM CMP and 3) co-incubated with 5 μM ECP and 5 μM CMP at 37° C. for 6 and 12 h. After incubation, total RNAs were extracted with RNA TRIzol reagent (Invitrogen, Inc) and reverse transcribed with MoMLV-reverse transcriptase (Promega, Madison, Wis.). SYBR Green-based quantitative real-time PCR will be used to quantify the gene of interest, relative expression ratios of genes of interest were normalized to glyceraldehyde-3-phosphate dehydrogenase (GAPDH) transcripts. Changes in cytokine expression were measured by quantitative real-time PCR (qRT-PCR) employing the StepOne™ amplification and detection system (Life Technologies Corporation). Data were analyzed by application of the StepOne™ quantification program software (version 2.22, Life Technologies Corporation) and expressed as means±S.D. Significance analysis was carried out by a two-sample unequal variance t-test with two-tailed distribution (post test). Significance was set as P<0.05.
ECP, the best known marker protein of asthma, is involved in triggering cytokine expression in bronchial epithelial cells. Real-time PCR analysis was carried out to quantify expression levels of indicated cytokines upon treatment with recombinant ECP in the presence and absence of CMP Bronchial epithelial Beas-2B cells were separately cultured in serum-free medium in the presence of 5 μM ECP, 5 μM CMP and both 5 μM ECP and 5 μM CMP for 6 and 12 h to monitor cytokine and chemokine gene modulation using real-time quantitative PCR. Untreated Beas-2B cells incubated at the same condition for 6 h and 12 h were used as negative controls. Here variation of gene expression levels of chemokines including CCL11, CCL24 and CCL26 was analyzed.

CCL26 = test: Cytokine mRNA expression analysis by quantitative real-time PCR (CCL26); conditions: 5 μM ECP, Beas-2B cells, 6 h, relative to mock-treated
Experimental: as §1
For inflammatory cytokine expression analysis, Beas-2B cells were stimulated with three different conditions: 1) 5 μM ECP, 2) 5 μM CMP and 3) co-incubated with 5 μM ECP and 5 μM CMP at 37° C. for 6 and 12 h. […] SYBR Green-based quantitative real-time PCR will be used to quantify the gene of interest, relative expression ratios of genes of interest were normalized to glyceraldehyde-3-phosphate dehydrogenase (GAPDH) transcripts. Changes in cytokine expression were measured by quantitative real-time PCR (qRT-PCR) employing the StepOne™ amplification and detection system (Life Technologies Corporation). […]
ECP, the best known marker protein of asthma, is involved in triggering cytokine expression in bronchial epithelial cells. […] Here variation of gene expression levels of chemokines including CCL11, CCL24 and CCL26 was analyzed.

human CCL11 = test: CCL11 protein release from Beas-2B cells by ELISA; conditions: 37° C., 24 h
Experimental: FIG. 2 illustrates CCL11 expression in CMP and ECP co-treated Beas-2B cells. Beas-2B cells were starved with serum free medium for 24 h, followed by stimulation with ECP (column 2). Cells were stimulated with PBS as negative control (column 1) and ECP in the absence of CMP (column 2) or presence of 1 μM (column 3), 2.5 μM (column 4), 5 μM (column 5), 10 μM (column 6) CMP at 37° C. for 24 h. CCL11 protein level was determined by ELISA kit employing CCL11 antibody. The data represented mean±SD (standard deviation) of at least three independent experiments. ***, p<0.001; **, p<0.01
FIG. 3 illustrates CCL11 expression in CMP and IL-4 co-treated Beas-2B cells. Beas-2B cells were starved with serum free medium for 24 h, followed by stimulation with PBS (column 1) or 10 ng/mL IL-4 (column 2-7). Cells were stimulated with 10 ng/mL IL-4 in the absence […] or presence of 1 μM (column 3), 2.5 μM (column 4), 5 μM (column 5) and 10 μM (column 6) CMP at 37° C. for 24 h. CCL11 protein level was determined by ELISA kit employing CCL11 antibody. The data represented mean±SD (standard deviation) of at least three independent experiments. ***, p<0.001 (Stimulation with IL-4 compared with PBS treated Beas-2B cells). *, p<0.05 (Stimulation with indicated concentrations of CMP compared with IL-4 treated Beas-2B cells).
CCL11 ELISA kit (R&D) is an in vitro enzyme-linked immunosorbent assay for quantitative determination of human CCL11 concentration in cell culture supernatants. This assay employed an antibody specific for human CCL11 coated on a 96-well plate. The wells were incubated with 50 μL standard or sample for 2.5 hours at room temperature. After washing with 1× wash solution five times, 200 μL of CCL11 conjugate were added into each wells for 1 h. After washing, 100 μL TMB One-Step Substrate Reagent were added into each wells at room temperature for 30 minutes. 50 μL of Stop Solution were added into each wells and read at 450 nm by spectrophotometer immediately. Limit of detection in the assay was 5 pg/mL.
To investigate whether CMP influenced ECP-mediated CCL11 expression, Beas-2B cells were separately stimulated with 5 μM ECP in the absence of CMP and in the presence of 1 μM, 2.5 μM, 5 μM and 10 μM CMP at 37° C. for 24 h.
To further investigate whether CMP influenced CCL11 production from other stimulation in Beas-2B cells, serum-deprived Beas-2B cells were stimulated with 10 ng/mL IL-4, a dominant cytokine regulating CCL11, alone or in the presence of CMP at concentrations 1, 2.5, 5 and 10 μM at 37° C. for 24 h.

Row | Molecule | CCL11 gene expression level increase (CCL11; 6 h) | CCL11 gene expression level increase (CCL11; 12 h) | CCL26 gene expression level increase (CCL26) | CCL11 release (human CCL11; 5 μM ECP alone, Beas-2B cells) | CCL11 release (human CCL11; 10 ng/mL IL-4 alone, serum-deprived Beas-2B cells)
1 | B1 | 9 fold | 2.8 fold | 2 fold | 17.8 pg/mL | –
2 | B2 | – | – | – | – | 73.2 pg/mL
